Measurements reported in publication PMC11243334, “Synthesis and Evaluation of the First ^68Ga-Labeled C-Terminal Hydroxamate-Derived Gastrin-Releasing Peptide Receptor-Targeted Tracers for Cancer Imaging with Positron Emission Tomography” (Molecules, 2024).
Read-outs that look alike come from different tables or passages of the source. One block for each compound: values may come before it.

Experiments:
[1] = Ex vivo biodistribution in PC-3 tumor-bearing mice; details: male, mouse, iv, total radioactivity, 1 h post injection, mean ± SD, n = 4; for tissue uptake at 1 h: NOD.Cg-Rag1^tm1Mom Il2rg^tm1Wjl/SzJ (NRG); for tissue to tissue ratio at 1 h: NOD.Cg-Rag1tm1Mom Il2rgtm1Wjl/SzJ (NRG)
Procedure: Biodistribution studies were conducted for ^68Ga-labeled SB3, LW02075 and LW02050 in PC-3 tumor-bearing mice (n = 4).
(§1) Imaging and biodistribution studies were performed on male NOD.Cg-Rag1^tm1Mom Il2rg^tm1Wjl/SzJ (NRG) mice following previously published procedures. The experiments were conducted following the guidelines established by the Canadian Council on Animal Care and approved by Animal Ethics Committee of the University of British Columbia. The mice were sedated (2.5% isoflurane in oxygen) and injected with 5 × 10^6 PC-3 cells (100 µL; 1:1 PBS/Matrigel) subcutaneously behind the left shoulder. The tumor-bearing mice were used for PET/CT imaging and biodistribution studies when the tumor grew to 5–8 mm in diameter.
For biodistribution studies, the mice were injected with the radiotracer (~2–4 MBq), as described above. Blocking of [^68Ga]Ga-LW02075 and [^68Ga]Ga-LW02050 was conducted by co-injection with 100 μg nonradioactive Ga-LW02075 and Ga-LW02050, respectively, through a lateral caudal tail vein under anaesthesia. At 1 h post injection, the mice were sedated and euthanized by CO2 inhalation. Blood was collected via cardiac puncture, and organs/tissues of interest were collected, weighed, and counted on a Perkin Elmer (Waltham, MA, USA) Wizard2 2480 automatic gamma counter.

physchem = details: n-octanol/DPBS, pH 7.4
Procedure: LogD7.4 values of [^68Ga]Ga-LW02075, [^68Ga]Ga-LW02050, and [^68Ga]Ga-SB3 were measured via the shake flask method. An aliquot of the ^68Ga-labeled tracer (~1.85 MBq) was added to a 15 mL falcon tube containing 3 mL of n-octanol and 3 mL of DPBS (pH 7.4) followed by 1 min of vortex (n = 3). After that, the mixture was centrifuged at 5000 rpm for 10 min, and samples of the n-octanol (1 mL) and buffer (1 mL) layers were collected and counted on a Perkin Elmer (Waltham, MA, USA) Wizard2 2480 automatic gamma counter. The LogD7.4 values of [^68Ga]Ga-LW02075, [^68Ga]Ga-LW02050, and [^68Ga]Ga-SB3 were calculated following the equation: LogD7.4 = log10[(counts in the n-octanol phase)/(counts in the buffer phase)].

PC-3 tumor xenografts = assay: PET/CT imaging in mice bearing PC-3 tumor xenografts; type: in vivo; details: 1 h post injection, mice
Procedure: as §1
PET/CT imaging experiments were performed on a Siemens (Knoxville, TN, USA) Inveon micro PET/CT scanner. Each tumor-bearing mouse was injected with ~3–6 MBq of ^68Ga-labeled tracer through a lateral caudal tail vein under anaesthesia. At around 50 min post injection, a 10 min CT scan was obtained first for localization and attenuation correction after segmentation for reconstructing the PET image, followed by a 10 min static PET scan.

GRPR [2] = target: T1, GRPR (Homo sapiens, UniProt P30550); assay: Fluorometric intracellular calcium release assay in PC-3 cells; type: cell-based; details: for Ca2+ mobilization, relative fluorescence units (RFUs = max − min): 50 nM ligand, FLIPR Calcium 6, signal acquired 2 min, n = 3
T1 construct: host or cells: PC-3 human prostate adenocarcinoma cells
Procedure: The antagonist/agonist characteristics of Ga-LW02075 and Ga-LW02050 were determined following previously published procedures. A 96-well clear-bottomed black plate was seeded with 5 × 10^4 PC-3 cells/well in 100 μL growth media 24 h prior to the assay. A calcium-sensitive dye (FLIPR Calcium 6 assay kit from Molecular Devices, San Jose, CA, USA) dissolved in the loading buffer (100 μL/well) was added into the plate followed by 1 h incubation at 37 °C. Then, the plate was transferred into a FlexStation 3 microplate reader (Molecular Devices, San Jose, CA, USA) to record the fluorescent signals. Ga-complexed SB3 derivatives (50 nM), [D-Phe^6,Leu-NHEt^13,des-Met^14]Bombesin(6-14) (50 nM, antagonist control), bombesin (50 nM, agonist control), adenosine triphosphate (ATP, 50 nM, positive control), or DPBS (blank control) were added. The fluorescent signals were acquired for 2 min (λEx = 485 nm; λEm = 525 nm; n = 3). The relative fluorescent units (RFUs = max − min) were calculated to determine the agonistic/antagonistic characteristics of the tested ligands.

GRPR [3] = target: T1, GRPR; assay: In vitro competition binding assay, displacement of [125I-Tyr4]Bombesin from PC-3 cells; details: GRPR-expressing PC-3 cells, 0.01 nM [125I-Tyr4]Bombesin, 1 h at 37 °C, ligand 10 μM to 1 pM, n = 3
Procedure: The Ki values of Ga-LW02075, Ga-LW02050, and Ga-SB3 were measured using GRPR-expressing PC-3 prostate cancer cells via a cell-based competition binding assay. Ga-SB3, Ga-LW02075, and Ga-LW02050 inhibited the binding of [^125I-Tyr^4]Bombesin towards PC-3 cells in a dose-dependent manner (Figure 2).
Inhibition constants (Ki) of Ga-SB3, Ga-LW02075, and Ga-LW02050 toward GRPR were measured by in vitro competition binding assay following previously published procedures. The assays were conducted in triplicate with varied concentrations (10 μM to 1 pM) of Ga-SB3, Ga-LW02075, and Ga-LW02050. Briefly, 2 × 10^5 cells/well of PC-3 cells were seeded in 24-well poly-D-lysine plates 24 h prior to the assay. The growth medium was replaced with 400 μL of reaction medium (RPMI 1640 containing 2 mg/mL bovine serum albumin (BSA) and 20 mM HEPES), followed by 1 h incubation at 37 °C. The tested ligands in 50 μL reaction medium and 0.01 nM [^125I-Tyr^4]Bombesin in 50 μL reaction medium were added into the wells, and then incubated at 37 °C with moderate agitation for 1 h. […] Data analysis was performed using nonlinear regression with GraphPad (San Diego, CA, USA) Prism 10 software (Version 10.1.1).

GRPR [4] = details: ref 14 (Devin et al.); cited from earlier work
Description: Most of the reported GRPR-targeted agonist and antagonist sequences contain a C-terminal amide. […] To the best of our knowledge, no GRPR-targeted radioligands containing a C-terminal hydroxamate have ever been reported. Therefore, the goal of this study was to evaluate the potential of C-terminal hydroxamate- ...

T1 sequence (P30550 whole entry): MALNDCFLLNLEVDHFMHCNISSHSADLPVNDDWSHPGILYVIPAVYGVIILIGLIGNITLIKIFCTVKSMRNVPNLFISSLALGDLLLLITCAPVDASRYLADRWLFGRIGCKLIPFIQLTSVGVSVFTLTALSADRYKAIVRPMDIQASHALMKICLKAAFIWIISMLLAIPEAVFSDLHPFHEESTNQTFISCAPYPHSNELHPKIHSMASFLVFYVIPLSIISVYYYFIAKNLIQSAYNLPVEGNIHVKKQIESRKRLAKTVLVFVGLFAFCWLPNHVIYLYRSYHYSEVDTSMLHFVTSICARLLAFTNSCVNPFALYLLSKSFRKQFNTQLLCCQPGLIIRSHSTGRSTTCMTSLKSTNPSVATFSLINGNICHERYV

Compound: CCNC(=O)[C@H](CC(C)C)NC(=O)[C@H](Cc1c[nH]cn1)NC(=O)CNC(=O)[C@@H](NC(=O)[C@H](C)NC(=O)[C@H](Cc1c[nH]c2ccccc12)NC(=O)[C@H](CCC(N)=O)NC(=O)[C@@H](Cc1ccccc1)NC(=O)COCC(=O)Nc1ccc(CNC(=O)CN2CCN(CC(=O)O)CCN(CC(=O)O)CCN(CC(=O)O)CC2)cc1)C(C)C [[^68Ga]Ga-SB3, [^68Ga]Ga-DOTA-pABzA-DIG-D-Phe-Gln-Trp-Ala-Val-Gly-His-Leu-NHEt, metal not drawn, reference compound]
tissue uptake at 1 h ([1]; PC-3 tumor, read-out: PC-3 tumor uptake): 6.98 ± 1.36 %ID/g | tissue uptake at 1 h ([1]; adrenal glands, read-out: Adrenal glands uptake): 2.07 ± 0.66 %ID/g | tissue uptake at 1 h ([1]; blood, read-out: Blood uptake): 0.5 ± 0.09 %ID/g | tissue uptake at 1 h ([1]; bone, read-out: Bone uptake): 0.12 ± 0.01 %ID/g | tissue uptake at 1 h ([1]; brain, read-out: Brain uptake): 0.04 ± 0.01 %ID/g | tissue uptake at 1 h ([1]; fat, read-out: Fat uptake): 0.05 ± 0.01 %ID/g | tissue uptake at 1 h ([1]; heart, read-out: Heart uptake): 0.16 ± 0.02 %ID/g | tissue uptake at 1 h ([1]; kidneys, read-out: Kidneys uptake): 2.26 ± 0.26 %ID/g | tissue uptake at 1 h ([1]; large intestine, read-out: Large intestine uptake): 2.2 ± 0.89 %ID/g | tissue uptake at 1 h ([1]; liver, read-out: Liver uptake): 2.1 ± 0.45 %ID/g | tissue uptake at 1 h ([1]; lungs, read-out: Lungs uptake): 1.18 ± 0.23 %ID/g | tissue uptake at 1 h ([1]; muscle, read-out: Muscle uptake): 0.18 ± 0.1 %ID/g | tissue uptake at 1 h ([1]; pancreas, read-out: Pancreas uptake): 37.3 ± 6.9 %ID/g | tissue uptake at 1 h ([1]; small intestine, read-out: Small intestine uptake): 6.03 ± 1.07 %ID/g | tissue uptake at 1 h ([1]; spleen, read-out: Spleen uptake): 0.33 ± 0.17 %ID/g | tissue uptake at 1 h ([1]; stomach, read-out: Stomach uptake): 1.42 ± 0.57 %ID/g | tissue uptake at 1 h ([1]; testes, read-out: Testes uptake): 0.13 ± 0.01 %ID/g | tissue to tissue ratio at 1 h ([1]; tumor and bone, read-out: Tumor/bone uptake ratio): 61 ± 15.5 | tissue to tissue ratio at 1 h ([1]; tumor and kidney, read-out: Tumor/kidney uptake ratio): 3.09 ± 0.51 | tissue to tissue ratio at 1 h ([1]; tumor and muscle, read-out: Tumor/muscle uptake ratio): 48.2 ± 24.9 | tissue to tissue ratio at 1 h ([1]; tumor and pancreas, read-out: Tumor/pancreas uptake ratio): 0.19 ± 0.03 | tissue to tissue ratio at 1 h ([1]; tumor and whole blood, read-out: Tumor/blood uptake ratio): 14.4 ± 3.88 | logD (physchem): -2.47 ± 0.09 | Excretion pathway in PET images (PC-3 tumor xenografts): excreted primarily through the renal pathway | Pancreas in PET images (PC-3 tumor xenografts): high pancreas uptake

Ca2+ mobilization, relative fluorescence units (RFUs = max − min) (GRPR [2]): 371 ± 65.0 RFUs
Compound: bombesin

Compound: Ga-DOTA-pABzA-DIG-D-Phe-Gln-Trp-Ala-Val-Gly-His-Leu-NHEt [Ga-SB3, reference compound]
Ki (GRPR [3]): 1.2 ± 0.31 nM

Ca2+ mobilization, relative fluorescence units (RFUs = max − min) (GRPR [2]): 47.2 ± 6.61 RFUs
Compound: [D-Phe^6,Leu-NHEt^13,des-Met^14]Bombesin(6-14)

Compound: Ga-DOTA-Pip-D-Phe-Gln-Trp-Ala-Val-Gly-His-Leu-NHOH [Ga-LW02050]
Ca2+ mobilization, relative fluorescence units (RFUs = max − min) (GRPR [2]): 25.8 ± 7.95 RFUs | Agonist/antagonist characteristics (GRPR [2]; 50 nM, calcium release assay): antagonist | Ki (GRPR [3]): 8.53 ± 1.52 nM

Ca2+ mobilization, relative fluorescence units (RFUs = max − min) (GRPR [2]): 271 ± 24.4 RFUs
Compound: Nc1ncnc2c1ncn2[C@@H]1O[C@H](COP(=O)(O)OP(=O)(O)OP(=O)(O)O)[C@@H](O)[C@H]1O [ATP, adenosine triphosphate]

Compound: D-Phe-Gln-Trp-Ala-Val-Gly-His-Leu-NHOH [C-terminal hydroxamate-derived GRPR-targeted antagonist reported by Devin et al]
Ki (GRPR [4]): 5.8 nM
